Laboratory results taken from patent US20230250148A1 (published 2023).
Changes are numbered by the printed parent chain. Like-named read-outs stand apart in the source and are kept apart here.

B1: insulin-Fc fusion protein of SEQ ID NO: 62 (Fc fusion)
chain: FVNQHLCGSHLVEALELVCGERGFHYGGGGGGSGGGGGIVEQCCTSTCSLDQLENYCGGGGGQGGGGQGGGGQGGGGGDCPKCPAPEMLGGPSVFIFPPKPKDTLLIARTPEVTCVVVDLDPEDPEVQISWFVDGKQMQTAKTQPREEQFSGTYRVVSVLPIGHQDWLKGKQFTCKVNNKALPSPIERTISKARGQAHQPSVYVLPPSREELSKNTVSLTCLIKDFFPPDIDVEWQSNGQQEPESKYRTTPPQLDEDGSYFLYSKLSVDKSRWQRGDTFICAVMHEALHNHYTQESLSHSPG
notes: 71% homodimer
B2: insulin-Fc fusion protein of SEQ ID NO: 61 (Fc fusion)
chain: B1 chain with D119A
notes: 73% homodimer
B3: insulin-Fc fusion protein of SEQ ID NO: 53 (Fc fusion)
chain: FVNQHLCGSHLVEALALVCGERGFFYTDPTGGGPRRGIVEQCCTSICSLYQLENYCGGGGGQGGGGQGGGGQGGGGGDCPKCPAPEMLGGPSVFIFPPKPKDTLLIARTPEVTCVVVDLDPEDPEVQISWFVDGKQMQTAKTQPREEQFSGTYRVVSVLPIGHQDWLKGKQFTCKVNNKALPSPIERTISKARGQAHQPSVYVLPPSREELSKNTVSLTCLIKDFFPPDIDVEWQSNGQQEPESKYRTTPPQLDEDGSYFLYSKLSVDKSRWQRGDTFICAVMHEALHNHYTQESLSHSPG
B4: insulin-Fc fusion protein of SEQ ID NO: 31 (Fc fusion)
chain: FVNQHLCGSDLVEALALVCGERGFFYTDPTGGGPRRGIVEQCCHSICSLYQLENYCNGGGGAGGGGRCTDTPPCPVPEPLGGPSVLIFPPKPKDILRITRTPEVTCVVLDLGREDPEVQISWFVDGKEVHTAKTQSREQQFNGTYRVVSVLPIEHQDWLTGKEFKCRVNHIDLPSPIERTISKARGRAHKPSVYVLPPSPKELSSSDTVSITCLIKDFYPPDIDVEWQSNGQQEPERKHRMTPPQLDEDGSYFLYSKLSVDKSRWQQGDPFTCAVMHETLQNHYTDLSLSHSPG
notes: HEK293; only 24% homodimer
B5: insulin-Fc fusion protein of SEQ ID NO: 36 (Fc fusion)
chain: FVNQHLCGSDLVEALALVCGERGFFYTDPTGGGPRRGIVEQCCHSICSLYQLENYCNGGGGAGGGGDCPKCPAPEMLGGPSVFIFPPKPKDTLLIARTPEVTCVVVDLDPEDPEVQISWFVDGKQMQTAKTQPREEQFNGTYRVVSVLPIGHQDWLKGKQFTCKVNNKALPSPIERTISKARGQAHQPSVYVLPPSREELSKNTVSLTCLIKDFFPPDIDVEWQSNGQQEPESKYRTTPPQLDEDGSYFLYSKLSVDKSRWQRGDTFICAVMHEALHNHYTQESLSHSPG
modifications: native N-glycosylation site cNg-NB139
notes: HEK293 homodimer
B6: insulin-Fc fusion protein of SEQ ID NO: 41 (Fc fusion)
chain: B5 chain with N139D
notes: non-glycosylated
B7: insulin-Fc fusion protein of SEQ ID NO: 40 (Fc fusion)
chain: B5 chain with N139S
notes: non-glycosylated
B8: insulin-Fc fusion protein of SEQ ID NO: 48 (Fc fusion)
chain: FVNQHLCGSHLVEALALVCGERGFFYTDPTGGGPRRGIVEQCCTSICSLYQLENYCGGGGAGGGGDCPKCPAPEMLGGPSVFIFPPKPKDTLLIARTPEVTCVVVDLDPEDPEVQISWFVDGKQMQTAKTQPREEQFSGTYRVVSVLPIGHQDWLKGKQFTCKVNNKALPSPIERTISKARGQAHQPSVYVLPPSREELSKNTVSLTCLIKDFFPPDIDVEWQSNGQQEPESKYRTTPPQLDEDGSYFLYSKLSVDKSRWQRGDTFICAVMHEALHNHYTQESLSHSPG

Columns and labels:
[1] = target: T1, biotinylated recombinant human Fc(gamma)RI (human, UniProt P12314 16-288, biotinylated, site not stated); assay: ELISA, fusion protein coated, biotinylated rhFc(gamma)RI at 3000 ng/mL
T1 construct: Bought reagent; construct not described; also called rhFc(gamma)RI; Fc(gamma) receptor I
T1 sequence (P12314 16-288 limits assumed): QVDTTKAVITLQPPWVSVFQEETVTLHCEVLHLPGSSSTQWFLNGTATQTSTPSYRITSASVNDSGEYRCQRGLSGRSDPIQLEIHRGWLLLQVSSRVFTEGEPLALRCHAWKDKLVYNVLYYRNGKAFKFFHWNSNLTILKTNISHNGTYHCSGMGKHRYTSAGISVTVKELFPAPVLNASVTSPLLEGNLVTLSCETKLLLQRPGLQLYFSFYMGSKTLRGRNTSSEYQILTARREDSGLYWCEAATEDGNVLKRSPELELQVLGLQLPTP
Protocol: (§1) The binding of insulin-Fc fusion proteins to the Fc(gamma)RI at pH 7.4 is conducted using an ELISA assay as follows using human Fc(gamma)RI (i.e., rhFc(gamma)RI). Insulin-Fc fusion proteins are diluted to 10 µg/mL in sodium bicarbonate buffer at pH 9.6 and coated on Maxisorp (Nunc) microtiter plates overnight at 4° C., after which the microplate strips are washed 5 times with PBST (PBS/0.05% Tween-20) buffer and blocked with Superblock blocking reagent (ThermoFisher). Serial dilutions of biotinylated rhFc(gamma)RI (recombinant human Fc(gamma)RI; R&D Systems) are prepared in PBST/10% Superblock buffer from 3000 ng/mL to 4.1 ng/mL and loaded at 100 µL/well onto the microplate strips coated with insulin-Fc fusion protein. The microtiter plate is incubated for 1 hour at room temperature after which time the microplate strips are washed 5 times with PBST and then loaded with 100 µL/well of streptavidin-HRP diluted 1:10000 in PBST/10% Superblock buffer. After incubating for 45 min, the microplate strips are washed again 5 times with PBST. TMB is added to reveal the bound Fc(gamma)RI proteins and is stopped with ELISA stop reagent (Boston Bioproducts). The plate is read in an ELISA plate reader at 450 nm, and the OD450 values (proportional to the binding of rhFc(gamma)RI to insulin-Fc protein) are plotted against log concentrations of rhFc(gamma)RI added to each well to generate binding curves using GraphPad Prism software. For groupings of compounds with somewhat similar curves, the OD450 at one of the higher concentrations, for instance at rhFc(gamma)RI concentrations of 3000 ng/mL, can be used to identify differences between coated insulin-Fc fusion protein compounds. […]
Finally, select compounds were tested for their likelihood to interact with the immune system by measuring their Fc(gamma) receptor binding activity according to the procedure of Example 15.

[2] = target: T2, human insulin receptor (IR) on human IM-9 cells (human, UniProt P06213 28-1382); assay: competition with biotinylated RHI on IM-9 cells, flow cytometry, 4 C
T2 construct: whole, on cells; also called human IR
T2 sequence (P06213 28-1382): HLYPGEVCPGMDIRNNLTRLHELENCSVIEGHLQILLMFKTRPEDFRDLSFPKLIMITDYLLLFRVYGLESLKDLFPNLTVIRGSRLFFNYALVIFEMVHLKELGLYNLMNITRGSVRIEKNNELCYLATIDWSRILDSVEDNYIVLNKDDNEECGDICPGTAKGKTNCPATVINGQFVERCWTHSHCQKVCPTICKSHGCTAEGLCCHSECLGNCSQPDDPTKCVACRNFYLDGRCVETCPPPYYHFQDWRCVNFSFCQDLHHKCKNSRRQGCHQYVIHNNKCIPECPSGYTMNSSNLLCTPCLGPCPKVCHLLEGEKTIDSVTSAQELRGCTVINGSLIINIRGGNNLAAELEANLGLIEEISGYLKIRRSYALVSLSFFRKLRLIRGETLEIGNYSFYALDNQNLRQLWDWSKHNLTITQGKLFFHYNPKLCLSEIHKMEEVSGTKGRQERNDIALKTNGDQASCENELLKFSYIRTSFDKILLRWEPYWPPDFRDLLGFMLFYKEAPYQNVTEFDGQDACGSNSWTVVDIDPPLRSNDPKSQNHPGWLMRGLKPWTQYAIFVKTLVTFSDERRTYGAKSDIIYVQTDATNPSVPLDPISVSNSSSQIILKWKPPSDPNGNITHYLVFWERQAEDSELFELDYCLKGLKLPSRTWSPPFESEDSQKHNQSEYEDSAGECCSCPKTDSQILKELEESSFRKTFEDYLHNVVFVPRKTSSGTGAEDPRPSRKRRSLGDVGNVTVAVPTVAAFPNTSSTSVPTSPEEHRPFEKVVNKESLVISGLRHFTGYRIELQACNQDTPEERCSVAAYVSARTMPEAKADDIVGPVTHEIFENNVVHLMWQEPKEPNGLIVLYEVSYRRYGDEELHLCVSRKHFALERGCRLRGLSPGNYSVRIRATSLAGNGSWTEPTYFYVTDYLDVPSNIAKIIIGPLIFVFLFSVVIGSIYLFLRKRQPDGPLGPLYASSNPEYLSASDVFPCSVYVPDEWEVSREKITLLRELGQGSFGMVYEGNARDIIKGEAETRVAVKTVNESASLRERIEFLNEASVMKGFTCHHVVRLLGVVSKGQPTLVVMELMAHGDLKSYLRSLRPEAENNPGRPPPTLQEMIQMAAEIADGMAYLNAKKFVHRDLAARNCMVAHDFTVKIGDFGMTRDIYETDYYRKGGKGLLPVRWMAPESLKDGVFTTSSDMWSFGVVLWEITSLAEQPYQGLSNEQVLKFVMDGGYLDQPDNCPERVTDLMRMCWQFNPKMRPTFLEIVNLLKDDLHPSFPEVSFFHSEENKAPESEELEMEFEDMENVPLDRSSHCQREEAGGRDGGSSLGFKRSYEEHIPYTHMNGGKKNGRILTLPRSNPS
Protocol: (§2) 40 µL of an IM-9 cell suspension (8×10⁶ cells/mL) was then added to each well by multichannel pipette, mixed again gently and incubated on ice for 30 min to allow competitive binding on the IR on IM-9 cells. Cells were then washed twice with 275µL of ice-cold FACS wash buffer (HBSS/2mM EDTA/0.1% Na-azide + 0.5% horse serum) by centrifuging the V-bottom plate at 3000 rpm for 3 min and aspirating the supernatant. Cells were then resuspended in 40µL of FACS staining medium containing 1:100 diluted Streptavidin-PE (Life Technologies) for 20 min on ice. Cells were then washed once with 275 µL of ice-cold FACS buffer and finally fixed with 3% paraformaldehyde for 10 min at room temp. Cells were then washed once with 275 µL of ice-cold FACS buffer and resuspended in 250µl of FACS buffer for analysis.
(§3) The insulin-Fc fusion proteins were manufactured in HEK293 cells according to Example 1 and purified using a Protein A column according to Example 4. Their structures were confirmed according to Example 6 by non-reducing and reducing CE-SDS, and the sequences were further identified by LC-MS with glycan removal according to Example 8. Their %homodimer content was measured by size-exclusion chromatography according to Example 10, and their insulin receptor binding affinities were measured according to Example 12.

[3] = target: T2, human insulin receptor (IR) on human …; assay: as above; remark: listed apart in the source
Protocol: as §2
as §3, with “The two insulin-Fc fusion” for “The insulin-Fc fusion”

[4] = target: T2, human insulin receptor (IR) on human …; assay: as above; remark: listed apart in the source
Protocol: as §2
In vitro insulin receptor binding for the insulin-Fc fusion proteins of SEQ ID NO: 36 and SEQ ID NO: 38 was tested according to the procedure of Example 12.

[5] = target: T1, biotinylated recombinant human …; assay: ELISA, fusion protein coated, biotinylated rhFc(gamma)RI in solution
Protocol: as §1

[6] = target: T1, biotinylated recombinant human …; assay: as above; remark: listed apart in the source

Binder | OD450nm [1] | OD450nm minus assay background [1] | ratio to SEQ ID NO: 36 [1] | OD450nm [5] | OD450nm minus assay background [5] | ratio to SEQ ID NO: 36 [5] | other results
B1 | 0.175 | 0.118 | 0.32 |  |  |  | IC50 [2]: 2.3 µM
B2 | 0.166 | 0.109 | 0.29 |  |  |  | IC50 [2]: 3.09 µM
B3 |  |  |  |  |  |  | IC50 [3]: 1.28 µM
B4 |  |  |  |  |  |  | IC50 [4]: 2.73 µM
B5 | 0.428 | 0.371 | 1 | 0.386 | 0.323 | 1 | IC50 [4]: 0.028 µM
B6 |  |  |  | 0.204 | 0.141 | 0.44 | fold Fc(gamma) receptor binding activity against SEQ ID NO: 40 and SEQ ID NO: 42 [6]: ~2 fold
B7 |  |  |  | 0.14 | 0.077 | 0.24 | fold lower Fc(gamma)RI binding against SEQ ID NO: 36 [6]: 4 fold
B8 |  |  |  |  |  |  | IC50 [3]: > 5 µM
